Data: patent US20230115257A1 (CURIA IP, published 2023)

Columns and labels:
[1] = target: T1, SARS-CoV-2 Beta (B.1.351) variant prefusion stabilized spike trimer protein (SARS-CoV-2 Beta (B.1.351), UniProt P0DTC2 14-1213); experiment: ELISA screens of hybridomas on WT, Alpha, Beta and Gamma spike
T1 construct: also called SARS-CoV-2 B.1.351 spike protein; β spike

[2] = target: T2, SARS-CoV-2 (WIV02 isolate) prefusion stabilized spike trimer protein (SARS-CoV-2 (WIV02 isolate), UniProt P0DTC2 14-1213); experiment: Table A: binding pattern against variant spike proteins
T2 construct: also called WT; SARS-CoV-2 spike trimer

[3] = target: T3, SARS-CoV-2 B.1.1.529 spike trimer variant (SARS-CoV-2 B.1.1.529 (Omicron), UniProt P0DTC2 16-1213); experiment: as above
T3 construct: also called omicron; Omicron B.1.1.529

[4] = target: T4, SARS-CoV-2 B.1.617.2 spike trimer variant (SARS-CoV-2 B.1.617.2 (Delta), UniProt P0DTC2 16-1213); experiment: as above
T4 construct: also called delta; SARS-CoV-2 Delta Spike

[5] = target: T5, SARS-CoV-2 B.1.1.7 spike protein (SARS-CoV-2 B.1.1.7 (Alpha), UniProt P0DTC2 13-1213); experiment: as above
T5 construct: also called alpha; SARS-CoV-2 B.1.1.7 spike trimer variant

[6] = target: T6, SARS-CoV-2 BA.2 spike trimer variant (SARS-CoV-2 Omicron BA.2, UniProt P0DTC2 16-1213); experiment: as above
T6 construct: also called Omicron BA.2

[7] = target: T7, SARS-CoV-2 P.1 spike protein (SARS-CoV-2 P.1 (Gamma), UniProt P0DTC2 13-1213); experiment: as above
T7 construct: also called gamma; SARS-CoV-2 P.1 spike trimer variant

[8] = target: T1, SARS-CoV-2 Beta (B.1.351) variant …; experiment: Table A (reprint): binding pattern against variant spike proteins

Row | Binder | binding result [1] | binding result [2] | binding result [3] | binding result [4] | binding result [5] | binding result [6] | binding result [7] | binding result [8]
1 | 4-O14-B (antibody, V domains shown) VH: QVQLQQPGAELVKPGASVKLSCKASGYAFISHWMHWVRQRPGRGLEWIGRIDPNSSGSKDNEKFRSKATLTVDKPSSTAYMQLSSLTSEDSAVYYCARSPYYSNPYWYFDVWGAGTTVTVSS VL: EIVLTQSPALMAASPGEKVTITCSVSSSISSSNLHWYQQKSETSPKPWIYGTSNLASGVPVRFSGSGSGTSYSLTITNMEAEDAATYYCQQWSSYPFTFGSGTKLEIK | binds | – | – | – | – | – | – | –
2 | 9-G24-A (antibody, V domains shown) VH: QVQLQQSGAELVRPGASVKLSCKASGYTFTDYEMHWVKQTPVHGLEWIGVIDPETGDTAYNQKFKDKATLTADKSSSTAYMELRSLTSEDSAVYYCARRRDYGNPYWYFDVWGAGTAVTVSS VL: EIVLTQSPALMAASPGEKVTITCSASSSISSSNLHWYQQKSGTSPKPWIYGTSNLASGVPVRFSGSGSGTSYSLTISSMEAEDAATYVCQQWSNYPYTFGSGTKLEIK | – | no binding | no binding | no binding | no binding | no binding | no binding | –
3 | 3-K11-A (antibody, V domains shown) VH: EVQLQQSGPELVKPGASVKMSCKASGYTFTSYVMHWVKQKPGQGLEWIGYINPYNDGTEYNEKFKGKATLTSDKSSSTAYMELSSLTSEDSAVYHCAREAYRYFDVWGTGTTVTVSS VL: DIQMTQSPASLSVSVGETVTITCRASENIYSNLAWYQQKQGKYPQLLVYGATNLADGVPSRFSGSGSGTQYFLKINSLQSEDFGSYYCQHFWGIPWTFGGGTKLEIK | – | no binding | – | no binding | no binding | no binding | no binding | –
4 | 9-M12-A (antibody, V domains shown) VH: EVQLVESGGDLVKPGGSLKLSCTASGFTFSSYGMSWVRQTPDKRLEWVTTISSGGGYTYVPDSVKGRFTISRDNAKNTLYLHMSSLKSEDTAMYFCARPLIPTMVEAFDYWGQGTSLTVSS VL: SIVMTQTPKFLPVSAGDRVTMTCKASQSVGNNVAWYQQKPGQSPKLLIYYASNRYTGVPDRFTGSGSGADFTFTISSVQVEDLAVYFCQQHYSSPFTFGTGTKLEIK | – | no binding | no binding | no binding | no binding | no binding | no binding | –
5 | 3-P17-A (antibody, V domains shown) VH: QVQLKQSGPGLVQPSQSLSITCTVSGFSLTSYGVHWVRQSPGKGLEWLGVIWSGGITDYNAGFISRLSISKDNSKSQVFFTMNSLQADDTAIYYCARIITTVLDQFADWGQGTLVTVSA VL: DIVLTQSPASLAVSLGQRATISCRASQSVSTSTYSYIHWYQQKPGQPPKLLIKYASNLESGVPARFSGSGSGTDFTLNIHPVEEEDTATYYCQHSWEIPPTFGAGTKLELK | – | no binding | no binding | no binding | no binding | no binding | no binding | binds
